Source: doi:10.1101/2023.02.09.527830
“And” between values parts separate entries of the source, which are not always exact repeats. Equal entries are not always repeated.

Legend:
[1] = target: Lassa virus nucleoprotein (NP), AV strain (Lassa virus (AV strain)); assay: native MS
[2] = target: Lassa virus Z protein, AV strain (Lassa virus (AV strain)); assay: native MS
[3] = target: Lassa virus nucleoprotein (NP), AV strain (Lassa virus (AV strain)); assay: SEC
[4] = target: Lassa virus nucleoprotein (NP), AV strain (Lassa virus (AV strain)); assay: negative-stain electron microscopy
[5] = target: Lassa virus nucleoprotein (NP), AV strain (Lassa virus (AV strain)); assay: native MS; remark: listed apart in the source

Substance | Kd [1] [µM] | stoichiometry N [1] | stoichiometry N [2] | stoichiometry N [3] | stoichiometry N [4] | stoichiometry N [5]
Lassa virus Z protein, AV strain (natural protein) | 30 | < 3 | < 6 | – | – | –
Lassa virus nucleoprotein (NP), AV strain (natural protein) | – | 2 and 3 | – | 3 | 3 | 4 and 5 and 6
